Source: paper PMC2173041

Target: Notch receptor (Drosophila) (UniProt P07207)
Experiment: competitive cell aggregation assay

Sequence of UniProt P07207 (P07207 53-2703): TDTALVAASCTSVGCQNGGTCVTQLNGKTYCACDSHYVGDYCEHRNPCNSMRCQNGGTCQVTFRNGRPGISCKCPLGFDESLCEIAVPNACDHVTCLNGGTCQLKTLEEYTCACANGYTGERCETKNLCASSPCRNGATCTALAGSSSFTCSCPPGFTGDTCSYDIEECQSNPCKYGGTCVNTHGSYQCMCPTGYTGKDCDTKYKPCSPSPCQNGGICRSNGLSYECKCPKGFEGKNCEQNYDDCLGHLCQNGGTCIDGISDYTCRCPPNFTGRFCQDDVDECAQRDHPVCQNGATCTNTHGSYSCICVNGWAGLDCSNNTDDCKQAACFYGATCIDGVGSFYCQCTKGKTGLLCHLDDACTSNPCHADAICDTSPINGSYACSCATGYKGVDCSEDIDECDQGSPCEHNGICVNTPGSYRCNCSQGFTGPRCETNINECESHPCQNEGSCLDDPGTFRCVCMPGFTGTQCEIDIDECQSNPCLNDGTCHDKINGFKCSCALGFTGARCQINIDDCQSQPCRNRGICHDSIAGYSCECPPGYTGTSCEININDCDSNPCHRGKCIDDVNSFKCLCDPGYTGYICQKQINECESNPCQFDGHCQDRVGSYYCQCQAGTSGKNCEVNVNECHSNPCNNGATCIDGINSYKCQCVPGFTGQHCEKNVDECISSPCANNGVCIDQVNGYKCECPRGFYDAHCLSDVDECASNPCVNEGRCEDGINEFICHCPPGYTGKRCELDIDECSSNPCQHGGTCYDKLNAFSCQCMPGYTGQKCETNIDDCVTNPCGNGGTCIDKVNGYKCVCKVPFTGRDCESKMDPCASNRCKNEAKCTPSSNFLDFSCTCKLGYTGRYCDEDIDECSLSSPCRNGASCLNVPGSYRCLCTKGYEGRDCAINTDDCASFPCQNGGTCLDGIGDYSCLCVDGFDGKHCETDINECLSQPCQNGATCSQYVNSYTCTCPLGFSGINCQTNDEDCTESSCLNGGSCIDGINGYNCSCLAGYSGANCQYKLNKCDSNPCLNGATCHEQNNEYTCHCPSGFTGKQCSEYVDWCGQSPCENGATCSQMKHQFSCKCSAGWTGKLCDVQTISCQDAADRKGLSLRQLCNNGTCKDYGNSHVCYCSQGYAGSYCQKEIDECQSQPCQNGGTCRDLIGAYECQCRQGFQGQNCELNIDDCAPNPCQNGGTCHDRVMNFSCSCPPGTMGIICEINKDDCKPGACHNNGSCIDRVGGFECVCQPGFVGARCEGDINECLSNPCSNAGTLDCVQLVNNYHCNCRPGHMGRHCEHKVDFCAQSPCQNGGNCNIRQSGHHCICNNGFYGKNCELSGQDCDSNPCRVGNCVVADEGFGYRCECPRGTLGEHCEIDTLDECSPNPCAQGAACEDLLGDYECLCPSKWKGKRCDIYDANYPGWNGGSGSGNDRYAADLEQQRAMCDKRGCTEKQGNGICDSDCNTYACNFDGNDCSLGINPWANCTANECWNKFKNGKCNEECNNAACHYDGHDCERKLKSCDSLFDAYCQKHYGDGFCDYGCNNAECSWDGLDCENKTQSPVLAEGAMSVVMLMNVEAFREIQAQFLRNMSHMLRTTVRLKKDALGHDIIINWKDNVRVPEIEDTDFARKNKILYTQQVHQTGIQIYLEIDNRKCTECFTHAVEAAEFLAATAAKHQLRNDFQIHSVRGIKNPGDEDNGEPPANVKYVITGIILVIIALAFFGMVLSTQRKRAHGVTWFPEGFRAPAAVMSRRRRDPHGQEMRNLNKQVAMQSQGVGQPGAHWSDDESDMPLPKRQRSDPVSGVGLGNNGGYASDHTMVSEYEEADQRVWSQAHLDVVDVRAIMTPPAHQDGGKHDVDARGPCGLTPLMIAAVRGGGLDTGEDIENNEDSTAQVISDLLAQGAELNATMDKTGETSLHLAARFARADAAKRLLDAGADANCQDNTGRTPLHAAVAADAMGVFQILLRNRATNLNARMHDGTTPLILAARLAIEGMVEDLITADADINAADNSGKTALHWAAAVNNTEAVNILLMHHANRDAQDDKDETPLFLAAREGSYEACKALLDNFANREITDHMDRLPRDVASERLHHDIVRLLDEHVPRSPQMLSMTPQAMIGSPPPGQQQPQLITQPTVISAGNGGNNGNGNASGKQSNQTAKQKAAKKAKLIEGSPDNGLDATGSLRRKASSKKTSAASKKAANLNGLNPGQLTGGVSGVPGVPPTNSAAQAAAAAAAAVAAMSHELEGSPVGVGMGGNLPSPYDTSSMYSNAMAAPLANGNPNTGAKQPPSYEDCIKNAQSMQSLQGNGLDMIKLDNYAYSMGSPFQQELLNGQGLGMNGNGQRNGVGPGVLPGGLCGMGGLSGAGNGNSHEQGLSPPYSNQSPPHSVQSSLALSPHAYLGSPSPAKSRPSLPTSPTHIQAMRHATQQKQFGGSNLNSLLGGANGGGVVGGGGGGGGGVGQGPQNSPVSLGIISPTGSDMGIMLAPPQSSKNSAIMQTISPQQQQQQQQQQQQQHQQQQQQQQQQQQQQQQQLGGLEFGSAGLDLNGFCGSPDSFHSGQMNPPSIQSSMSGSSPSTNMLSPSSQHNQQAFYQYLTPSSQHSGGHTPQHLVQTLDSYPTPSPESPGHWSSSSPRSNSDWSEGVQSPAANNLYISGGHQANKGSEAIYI

percent inhibition of aggregation at >0.5 μM DlEC: < 20%
Substance: DlEC, extracellular fragment of Delta released by cleavage (from UniProt P10041 19-581) (domain or fragment)
